According to patent publication US20120178113A1:

T1: full-length human recombinant IGFBP-4 (insulin-like growth factor binding protein-4) expressed in NS0 cell line, P22692
T1 chain: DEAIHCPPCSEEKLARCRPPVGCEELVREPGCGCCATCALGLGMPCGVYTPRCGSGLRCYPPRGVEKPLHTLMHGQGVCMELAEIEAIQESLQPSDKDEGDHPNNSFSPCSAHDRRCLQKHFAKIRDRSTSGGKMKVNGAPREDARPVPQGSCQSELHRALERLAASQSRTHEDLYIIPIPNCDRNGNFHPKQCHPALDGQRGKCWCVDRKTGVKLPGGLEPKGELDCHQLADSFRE

B1: atherosclerotic PAPP-A (pregnancy-associated plasma protein-A purified from human atherosclerotic coronary arteries) (protein)
chain: EARGATEEPSPPSRALYFSGRGEQLRLRADLELPRDAFTLQVWLRAEGGQRSPAVITGLYDKCSYISRDRGWVVGIHTISDQDNKDPRYFFSLKTDRARQVTTINAHRSYLPGQWVYLAATYDGQFMKLYVNGAQVATSGEQVGGIFSPLTQKCKVLMLGGSALNHNYRGYIEHFSLWKVARTQREILSDMETHGAHTALPQLLLQENWDNVKHAWSPMKDGSSPKVEFSNAHGFLLDTSLEPPLCGQTLCDNTEVIASYNQLSSFRQPKVVRYRVVNLYEDDHKNPTVTREQVDFQHHQLAEAFKQYNISWELDVLEVSNSSLRRRLILANCDISKIGDENCDPECNHTLTGHDGGDCRHLRHPAFVKKQHNGVCDMDCNYERFNFDGGECCDPEITNVTQTCFDPDSPHRAYLDVNELKNILKLDGSTHLNIFFAKSSEEELAGVATWPWDKEALMHLGGIVLNPSFYGMPGHTHTMIHEIGHSLGLYHVFRGISEIQSCSDPCMETEPSFETGDLCNDTNPAPKHKSCGDPGPGNDTCGFHSFFNTPYNNFMSYADDDCTDSFTPNQVARMHCYLDLVYQGWQPSRKPAPVALAPQVLGHTTDSVTLEWFPPIDGHFFERELGSACHLCLEGRILVQYASNASSPMPCSPSGHWSPREAEGHPDVEQPCKSSVRTWSPNSAVNPHTVPPACPEPQGCYLELEFLYPLVPESLTIWVTFVSTDWDSSGAVNDIKLLAVSGKNISLGPQNVFCDVPLTIRLWDVGEEVYGIQIYTLDEHLEIDAAMLTSTADTPLCLQCKPLKYKVVRDPPLQMDVASILHLNRKFVDMDLNLGSVYQYWVITISGTEESEPSPAVTYIHGSGYCGDGIIQKDQGEQCDDMNKINGDGCSLFCRQEVSFNCIDEPSRCYFHDGDGVCEEFEQKTSIKDCGVYTPQGFLDQWASNASVSHQDQQCPGWVIIGQPAASQVCRTKVIDLSEGISQHAWYPCTISYPYSQLAQTTFWLRAYFSQPMVAAAVIVHLVTDGTYYGDQKQETISVQLLDTKDQSHDLGLHVLSCRNNPLIIPVVHDLSQPFYHSQAVRVSFSSPLVAISGVALRSFDNFDPVTLSSCQRGETYSPAEQSCVHFACEKTDCPELAVENASLNCSSSDRYHGAQCTVSCRTGYVLQIRRDDELIKSQTGPSVTVTCTEGKWNKQVACEPVDCSIPDHHQVYAASFSCPEGTTFGSQCSFQCRHPAQLKGNNSLLTCMEDGLWSFPEALCELMCLAPPPVPNADLQTARCRENKHKVGSFCKYKCKPGYHVPGSSRKSKKRAFKTQCTQDGSWQEGACVPVTCDPPPPKFHGLYQCTNGFQFNSECRIKCEDSDASQGLGSNVIHCRKDGTWNGSFHVCQEMQGQCSVPNELNSNLKLQCPDGYAIGSECATSCLDHNSESIILPMNVTVRDIPHWLNPTRVERVVCTAGLKWYPHPALIHCVKGCEPFMGDNYCDAINNRAFCNYDGGDCCTSTVKTKKVTPFPMSCDLQGDCACRDPQAQEHSRKDLRGYSHG
B2: human recombinant PAPP-A (HyTest) (protein)
chain: B1 chain

Molecular target: T1, full-length human recombinant IGFBP-4 …

Protein | PAPP-A-dependent cleavage of IGFBP-4, determined by Western blotting
B1 | Atherosclerotic PAPP-A was shown to cleave IGFBP-4 with the same efficiency as recombinant PAPP-A
B2 | Atherosclerotic PAPP-A was shown to cleave IGFBP-4 with the same efficiency as recombinant PAPP-A
